For the data set, the system named is CC(=O)SCCNC(=O)CCNC(=O)[C@H](O)C(C)(C)COP(=O)(O)OP(=O)(O)OC[C@H]1O[C@@H](n2cnc3c(N)ncnc32)[C@H](O)[C@@H]1OP(=O)(O)O. Nature of the data set: purified protein, by the assay type. The conditions noted are these: other: 37° C., 40 minutes, pH 7.5, 20 mM citrate.

This passage reports Km results from patent US7150969B2, “Alternatively spliced isoform of acetyl-CoA carboxylase 2 (ACC2)” (Rosetta Inpharmatics LLC, priority 2004, dated 2006).

One may read the Km as the concentration of substrate that gives half-maximal velocity. As to ACC1 (Homo sapiens), the Km is 51 µM.
To ACC2 (Homo sapiens) belongs 108 µM.
